Data: patent US9307782B2, “Mannanase produced from Cellulosimicrobium sp. strain HY-13” (Korea Research Institute of Bioscience and Biotechnology, priority 2011, dated 2016)
Read-outs that look alike come from different tables or passages of the source. Marks after values point to notes of the source that are not given here.

Assays:
[1] = Binding of mannanase to insoluble polymer; details: enzyme 5.0 IU/Ml, on ice two hours, pH 6.0
Description: The mannanase of the present invention contains two family 10 CBMs at C-terminal, which plays an important role in enzyme-substrate interaction. As the mannanase was expected to bind to various carbohydrate polymers, hydrophobic materials having microstructures including polysaccharide, poly(3HB) granules, and lignin were used as substrates to investigate enzyme-substrate binding activity of the mannanase.
Before analyzing the binding activity, insoluble substrates were washed with 50 mM sodium phosphate buffer (pH 6.0) 5 times, followed by measuring the binding capacity of the enzyme to the hydrophobic materials. Particularly, the enzyme diluted at the concentration of 5.0 IU/Ml was put on ice for two hours with the equal volume of a substrate polymer. The mixture was stirred every 5 minute. The mixture was centrifuged at 12,000×g to obtain supernatant. Then, the activity of β-1,4-mannanase thereof was measured.

[2] = assay type: physicochemical
Description: To determine the optimum reaction temperature of the mannanase, mannanase activity was measured at different temperatures of 37, 40, 45, 50, 55, 60, 65, and 70° C. To measure thermo-stability, the mannanase was heat-treated at the said temperatures for 15, 30, and 60 minutes and then the remained activity was measured. To determine the optimum reaction pH, the mannanase was treated respectively with 50 mM of sodium citrate buffer (pH 4.0˜5.5), phosphate buffer (pH 5.5˜7.5), Tris-HCl buffer (pH 7.5˜9.0), and glycine-NaOH buffer (pH 9.0˜10.0) in pH range of 4.0˜10.0 at 55° C. for 15 minutes, followed by measurement of enzyme reaction.

[3] = Specific activity of mannanase (substrate specificity); assay type: biochemical; details: substrate Birchwood xylan
Text: The activity of β-1,4-mannanase was investigated by measuring the reduced amount of glucose isolated from locust bean gum using 3,5-dinitrosalicylic acid (DNS). At this time, D-mannose was used as a standard material. […] The activity of the recombinated mannanase (1 IU) to the mannan substrate was defined as the amount of the protein necessary for the secretion of 1 μmol reducing sugar under the standard analysis condition. […] The enzyme activity of the recombinated mannanase to the chromogenic substrate was measured under the same conditions as set for the analysis of β-1,4-mannanase activity. The activity of the recombinated mannanase (1 IU) to the PNP-sugar derivative was defined as the amount of the protein necessary for the production of 1 μmol PNP under the standard analysis condition.

[4] = toward locust bean gum; comparison enzymes of other strains; cited from earlier work
[5] = Specific activity of mannanase (substrate specificity); assay type: biochemical
Description: (§1) The activity of β-1,4-mannanase was investigated by measuring the reduced amount of glucose isolated from locust bean gum using 3,5-dinitrosalicylic acid (DNS). At this time, D-mannose was used as a standard material. 0.5 Ml of a standard mixture composed of 0.5% locust bean gum was mixed with 0.05 Ml of an enzyme aqueous solution, followed by inducing biodegradation reaction in 50 mM sodium phosphate buffer (pH 6.0) at 50° C. for 15 minutes. The activity of the recombinated mannanase (1 IU) to the mannan substrate was defined as the amount of the protein necessary for the secretion of 1 μmol reducing sugar under the standard analysis condition. Chromogenic PNP-sugar derivative was used to measure another degrading activity of the said recombinated enzyme. The enzyme activity of the recombinated mannanase to the chromogenic substrate was measured under the same conditions as set for the analysis of β-1,4-mannanase activity. The activity of the recombinated mannanase (1 IU) to the PNP-sugar derivative was defined as the amount of the protein necessary for the production of 1 μmol PNP under the standard analysis condition.

[6] = Analysis of degradation product (HPLC, LC-MS/MS); assay type: biochemical
Description: (§2) Mannooligomer (M2˜M5, 1 mg/100 μl each) and locust bean gum (1.4 mg/100 μl) were reacted in 50 mM sodium phosphate buffer (pH 6.0) containing 1 μg of the recombinant mannanase at 30° C. for 12 hours, followed by investigation of the hydrolysate. HPLC (high performance liquid chromatography) was performed by using Finnigan Surveyor™ Modular HPLC systems (Thermo Electron Co.) equipped with Asahipak NH2P-50 2D column (5 μm, 2.0×150 mm, Shodex) ran by Xcalibur software (version 1.3 SP2, Thermo Electron Co.). Elution buffer A (0.05% pomalus acid/sterilized water) and elution buffer B (acetonitrile and methanol (7:3) containing 0.05% pomalus acid) were used as moving phases. LC-MS/MS (liquid chromatography/tandem mass spectrometry) was performed by using Finnigan LCQ Advantage MAX ion trap mass spectrometer (Thermo Electron Co.).

[7] = Specific activity of mannanase (DNS reducing sugar assay); assay type: biochemical; details: for Specific activity: pH 6.0, 50° C., 15 minutes
Description: To compare the mannanase activity to different matrixes, locust bean gum, ivory nut mannan and guar gum were used as matrixes and the activity of the purified mannanase to those matrixes were investigated.
as §1

[8] = Analysis of degradation product (HPLC, LC-MS/MS); assay type: biochemical; details: substrate Ivory nut mannan; LC area %
Description: as §2, with “Mannooligomer (M2˜M5, 1 mg/100 μl each) and locust bean gum (1.4 mg/100 μl) were reacted in 50 mM sodium phosphate buffer (pH 6.0) containing 1 μg of the recombinant mannanase at 30° C. for 12 hours, followed by investigation of the hydrolysate.” left out

[9] = substrate Locust bean gum, 1 μg recombinant mannanase, pH 6.0, 30° C., 12 hours, LC area %

B1: Mannanase: Wild type β-1,4-mannanase of Bacillus subtilis WY34 (protein)
chain: MRRLFAIVLGAVLALLAVPALAQGASVASDGFSVQDGRIYDANGNRFVPVGVNHAHAWYPSQTQSFADIRAAGANTVRVVLSGGRYGTSSAADVSAVVERCKQNQLVCILENHDTTGYGEDGSARSLASAAQYWTSIASVLRGQERYVMINIGNEPFGNSGFQSWTTDTIAAIRTLRAAGLDHTLVVDAPNWGQDWSFTMRDNAPTVAAADGNVVFSVHMYGVFDTGAEVRAYLDSFTSRGLPIMVGEFGDNHSDGNPDEATIMSYTRSQGIGMLGWSWSGNGGGVEYLDMVNGFSASSLTPWGQRFVHGADGLRARNAPAASVYGGDGGDGDGGAGTAPNGYPYCASASSDPDGDGWGWESSASCVVRGSSADTGSGGGSGSGSTAPNGYPYCASASSDPDGDGWGWESSASCVVRGSSADR
modifications: cellulosimicrobium
notes: Wild type β-1,4-mannanase of Bacillus subtilis WY34
For B1, the “binding to insoluble polymer” value ([1]; Avicel) was “strongly conjugated”, the “binding to insoluble polymer” value ([1]; chitin) was “strongly conjugated” and the “binding to insoluble polymer” value ([1]; chitosan) was “strongly conjugated”. The “binding to insoluble polymer” value ([1]; curdlan) was “not conjugated”, the “binding to insoluble polymer” value ([1]; insoluble ivory nut mannan) was “strongly conjugated” and the “binding to insoluble polymer” value ([1]; insoluble oat spelt xylan) was “not conjugated”. The “binding to insoluble polymer” value ([1]; lignin) was “not conjugated”, the “binding to insoluble polymer” value ([1]; poly(3HB) granules) was “not conjugated” and the “Half life of the enzyme” value [2] was 15 min. The Thermolability ([2]; exposed on the temperature of 55° C.) was “rapidly increased”, the “degradation of carbohydrate” value [3] was “not degraded” and the Specific activity [4] was 8,302^d IU/mg. For the same molecule, the “degradation of carbohydrate” value ([5]; substrate carboxymethylcellulose) was “not degraded”, the “degradation of carbohydrate” value ([5]; substrate pectin) was “not degraded” and the “degradation of carbohydrate” value ([5]; substrate soluble starch) was “not degraded”. The “Composition (%) of products formed by hydrolysis reaction: M1” value [6, 9] was 1.1%, the “Composition (%) of products formed by hydrolysis reaction: M2” value [6, 9] was 6.4% and the “Composition (%) of products formed by hydrolysis reaction: M3” value [6, 9] was 1.5%. For the same molecule, the “Composition (%) of products formed by hydrolysis reaction: M4” value [6, 9] was 7.4%, the “Composition (%) of products formed by hydrolysis reaction: M5” value [6, 9] was 44.2% and the “degradation of substrate” value ([6]; substrate M2 (printed N2)) was “not degraded”. The “hydrolysis products: mannooligomer (at least M6)” value ([6]; substrate locust bean gum, sum of M6 and larger) was 39.4%, the “specific activity to ivory nut mannan relative to guar gum” value ([7]; ratio ivory nut mannan / guar gum) was 15.2 fold and the “specific activity to ivory nut mannan relative to locust bean gum” value ([7]; ratio ivory nut mannan / locust bean gum) was 1.7 fold. For the same molecule, the Specific activity ([7]; toward guar gum) was 967 IU/mg, the Specific activity ([7]; toward insoluble ivory nut mannan) was 14,711 IU/mg and the Specific activity ([7]; toward locust bean gum) was 8,498 IU/mg. For the same molecule, the “Composition (%) of products formed by hydrolysis reaction: M4” value [8] was 25.2%.
